Laboratory results as given in patent US10676765B2, “Methods for producing 3-hydroxy-3-methylbutyric acid” (Global Bioenergies, priority 2015, dated 2020).

Columns and labels:
Format in all cases: biochemical
[1] = Enzyme-catalyzed hydrolysis of 3-methylcrotonyl-CoA into 3-methylcrotonic acid and free coenzyme A; conditions: 10 mM 3-methylcrotonyl-CoA, 1 mg/ml thioesterase, 30 min, 30° C.
Description: The gene coding for acyl-CoA thioesterase II from Pseudomonas putida was synthesized according to the procedure as described in Example 1.
The vector pCA24N which contained the gene encoding acyl-CoA thioesterase 2 (TesB) from Escherichia coli was purchased from NAIST (Nara Institute of Science and Technology, Japan, ASKA collection). This vector provided contained a stretch of 6 histidine codons after the methionine initiation codon.
The corresponding enzymes were produced according to the procedure described in Example 1.
(§1) The enzymatic assays were conducted in a total reaction volume of 0.2 ml.
(§2) The standard reaction mixture contained:
10 mM 3-methylcrotonyl-CoA (Sigma-Aldrich)
1 mg/ml of purified recombinant thioesterase.
Control assays were performed in which either no enzyme was added or no substrate was added.
The assays were incubated for 30 min with shaking at 30° C., the reactions were stopped by the addition of 0.1 ml of acetonitrile and the samples were then analyzed by HPLC-based procedure.
HPLC analysis was performed using an 1260 Infinity LC System (Agilent), equipped with a column heating module and a UV detector (210 nm). […] The separation was performed using mixed A (H2O containing 8.4 mM sulfuric acid) and B (acetonitrile) solutions in a linear gradient (0% B at initial time 0 min→70% B at 8 min). […]

[2] = Enzyme-catalyzed hydrolysis of 3-hydroxyisovaleryl-CoA into 3-hydroxyisovaleric acid; conditions: 10 mM 3-hydroxyisovaleryl-CoA, 1 mg/ml thioesterase, 30 min, 30° C.
Method: The gene coding for acyl-CoA thioesterase II from Pseudomonas putida was synthesized and the corresponding enzymes were further produced according to the procedure described in Example 1.
Provided vectors contained a stretch of 6 histidine codons after the methionine initiation codon. The corresponding enzymes were further produced according to the procedure described in Example 1.
(§3) The enzymatic assays were conducted in total reaction volume of 0.2 ml
as §2
10 mM 3-hydroxyisovaleryl-CoA
1 mg/ml of purified thioesterase
The assays were incubated for 30 min with shaking at 30° C. and the reactions were stopped by the addition of 0.1 ml of acetonitrile. The amount of 3-hydroxyisovaleryl-CoA was quantified according to HPLC-based procedure described in Example 3.
In these conditions, the 3-hydroxyisovaleryl-CoA retention time was 4.40 min and coenzyme A (CoA) retention time was 3.96 min.
Additionally, 3-hydroxyisovaleric acid production was analyzed according to the procedure described en Example 6.

[3] = Kinetic studies of the hydration reaction of 3-methylcrotonyl-CoA; conditions: 0-4 mM 3-methylcrotonyl-CoA, 0.01 mg/ml enzyme, 30° C., pH 7.0
Method: as §3, §2
0-4 mM 3-methylcrotonyl-CoA
0.01 mg/ml 3-hydroxypropionyl-CoA dehydratase from Metallosphaera sedula.
Assays were incubated for 0, 2, 4, 8, 16 min with shaking at 30° C. and the reactions were stopped by the addition of 100 μl of acetonitrile. The amount of 3-hydroxyisovaleryl-CoA was quantified according to HPLC-based procedure described in Example 3.
The graph depicting 3-hydroxyisovaleryl-CoA formation as a function of time at different substrate concentrations is shown in the FIG. 15.

[4] = Formation of 3-hydroxyisovaleryl phosphate from 3-hydroxyisovaleryl-CoA and phosphate (MS); conditions: 10 mM 3-hydroxyisovaleryl-CoA, mass spectrometry
Method: The studied enzymatic reaction was carried out under the following conditions:
10 mM 3-hydroxyisovaleryl-CoA (3-hydroxy-3-methylbutyryl-CoA)
The purified phosphate butyryltransferase from B. subtilis was resuspended in 5 mM potassium phosphate pH 7.5.
A control assay without enzyme was performed in parallel.
The enzymatic assay was initiated by the addition of 20 μl of enzyme preparation into 20 μl of reaction mixture. The formation of 3-hydroxyisovaleryl phosphate (3-hydroxy-3-methylbutyryl phosphate) was analyzed by Mass Spectrometry (MS). 5 μl of the assay was introduced into the mass spectrometer via a loop injection.
Flow injection analyses were performed using a Dionex Ultimate chromatographic system (Thermo Fisher Scientific) at a flow rate of 100 μL/min with a mobile phase composed of H2O containing 10 mM ammonium formate pH 9.45 and acetonitrile 75:25 v/v. Detection was performed with a Q-exactive spectrometer (Thermo Fisher Scientific) fitted with an electrospray ionization source (negative ionization mode at a resolution of 70000 m/Δm, FWHM at m/z 200). Non-resonant induced dissociation experiments—Higher-energy C-trap dissociation (HCD)—were acquired at normalized collision energy of 10%. Raw data were manually inspected using the Qualbrowser module of Xcalibur version 3.0 (Thermo Fisher Scientific). […]

[5] = Conversion of 3-methylcrotonyl-CoA and ADP into 3-methylcrotonic acid and ATP, phosphate butyryltransferase from Bacillus subtilis with butyrate kinases; conditions: 4 mM 3-methylcrotonyl-CoA, 4 mM ADP, 0.2 mg/ml each enzyme, 20 min, 30° C.
Method: as §1, §2
(§4) 50 mM potassium phosphate buffer pH 7.5
4 mM 3-methylcrotonyl-CoA
(§5) 0.2 mg/ml of purified phosphate butyryltransferase from Bacillus subtilis
(§6) 0.2 mg/ml of purified butyrate kinase from Lactobacillus casei or Geobacillus sp.
Assays were then incubated for 20 min with shaking at 30° C.
(§7) After an incubation period, the reactions were stopped by heating the reaction medium 4 min at 90° C. The samples were centrifuged, filtered through a 0.22 μm filter and the clarified supernatants were transferred into a clean vial for further analysis. The consumption of ADP and 3-methylcrotonyl-CoA, and the formation of ATP, 3-methylcrotonic acid and free coenzyme A (CoA-SH) were followed by using HPLC-based methods.
HPLC analysis was performed using the 1260 Infinity LC System (Agilent) equipped with a column heating module and an RI detector. 2 μl of samples were separated on a Polaris C18-A column (150×4.6 mm, 5 μm particle size, column temp. 30° C.) with a mobile phase flow rate of 1.5 ml/min. The consumption of ADP and the formation of ATP were followed by HPLC analysis according to the methods described in Example 10.
HPLC analysis was performed using the 1260 Infinity LC System (Agilent) equipped with a column heating module and a UV detector (260 nm). […]

[6] = Conversion of 3-hydroxyisovaleryl-CoA and ADP into 3-hydroxyisovaleric acid and ATP, phosphate butyryltransferase from Bacillus subtilis with butyrate kinases; conditions: 4 mM 3-hydroxyisovaleryl-CoA, 4 mM ADP, 0.2 mg/ml each enzyme, 20 min, 30° C.
Method: as §1, §2, §4
4 mM 3-hydroxyisovaleryl-CoA
as §5, §6
A series of controls were performed in parallel (Assays C-H; Table 4).
The assays were then incubated for 20 min with shaking at 30° C.
as §7, with “3-hydroxyisovaleryl-CoA,” for “3-methylcrotonyl-CoA,”, “3-hydroxyisovaleric” for “3-methylcrotonic”
HPLC analysis was performed using 1260 Infinity LC System (Agilent), equipped with column heating module and RI detector. 2 μl of samples were separated on Polaris C18-A column (150×4.6 mm, 5 μm particle size, column temp. 30° C.) with a mobile phase flow rate of 1.5 ml/min. The separation was performed using 8.4 mM sulfuric acid in H2O/MeOH mixed solution (99/1) (V/V). In these conditions, the retention time of ADP, ATP and 3-hydroxyisovaleric acid were 2.09 min, 2.26 min and 5.01 min, respectively. […]

B1: tesB Escherichia coli: acyl-CoA thioesterase 2 from E. coli, Uniprot P0AGG2 (protein, listed as Escherichia coli)
chain: MSQALKNLLTLLNLEKIEEGLFRGQSEDLGLRQVFGGQVVGQALYAAKETVPEERLVHSFHSYFLRPGDSKKPIIYDVETLRDGNSFSARRVAAIQNGKPIFYMTASFQAPEAGFEHQKTMPSAPAPDGLPSETQIAQSLAHLLPPVLKDKFICDRPLEVRPVEFHNPLKGHVAEPHRQVWIRANGSVPDDLRVHQYLLGYASDLNFLPVALQPHGIGFLEPGIQIATIDHSMWFHRPFNLNEWLLYSVESTSASSARGFVRGEFYTQDGVLVASTVQEGVMRNHN
modifications: strain K12
notes: acyl-CoA thioesterase 2 from E. coli, Uniprot P0AGG2
- 3-methylcrotonic acid produced [1]: 0.6 mM
- Conversion, % [2]: 52%

B2: 3-Hydroxypropionyl-CoA dehydratase from Metallosphaera sedula: recombinant His-tagged 3-hydroxypropionyl-CoA dehydratase (EC 4.2.1.116) from Metallosphaera sedula, Uniprot A4YI89 (protein, listed as Metallosphaera sedula)
chain: MEFETIETKKEGNLFWITLNRPDKLNALNAKLLEELDRAVSQAESDPEIRVIIITGKGKAFCAGADITQFNQLTPAEAWKFSKKGREIMDKIEALSKPTIAMINGYALGGGLELALACDIRIAAEEAQLGLPEINLGIYPGYGGTQRLTRVIGKGRALEMMMTGDRIPGKDAEKYGLVNRVVPLANLEQETRKLAEKIAKKSPISLALIKEVVNRGLDSPLLSGLALESVGWGVVFSTEDKKEGVSAFLEKREPTFKGK
modifications: His tag; strain ATCC 51363 /DSM 5348
notes: recombinant His-tagged 3-hydroxypropionyl-CoA dehydratase (EC 4.2.1.116) from Metallosphaera sedula, Uniprot A4YI89
- Km [3]: 300 µM
- kcat for 3-methylcrotonyl-CoA [3]: 10 s⁻¹

B3: tesB Pseudomonas putida: acyl-CoA thioesterase II from Pseudomonas putida, Uniprot Q88DR1 (protein, listed as Pseudomonas putida)
chain: MSHVLDDLVDLLSLESIEENLFRGRSQDLGFRQLYGGQVLGQSLSAASQTVEDARHVHSLHGYFLRPGDASLPVVYSVDRVRDGGSFSTRRVTAIQKGQTIFTCSASFQYDEEGFEHQAQMPDVVGPENLPTEVELAHAMADQLPERIRDKVLCAKPIEIRPVTERDPFNPKPGDPVKYAWFRADGNLPDVPALHKYMLAYASDFGLLTTALLPHGKSVWQRDMQIASLDHSLWFHGNLRADQWLLYATDSPWAGNSRGFCRGSIFNQAGQLVASSSQEGLIRHRKDWA
- 3-methylcrotonic acid produced [1]: 3.1 mM
- Conversion, % [2]: 58%

B4: phosphate butyryltransferase from Bacillus subtilis: phosphate butyryltransferase (EC 2.3.1.19) from Bacillus subtilis (strain 168), Uniprot P54530 (protein, listed as Bacillus subtilis)
chain: MKLKDLIGKASIHKNKTIAVAHAEDEEVIRAVKLAAEHLSARFLLTGDSKKLNELTSSMQGHQVEIVHANTPEESAKLAVRAVHHKTADVLMKGNVPTSVLLKAVLNRQEGLRSASVLSHVAVFDIPDFDRLMFVTDSAMNIAPSLEELRQILQNAVHVAHAVGNNMPKAAALAAVETVNPKMEATVNAAALAQMYKRGQIKGCIVDGPLALDNAVSQIAAAQKKISGDVAGNADILLVPTIEAGNILYKSLIYFAKASVAAVITGAKAPIALTSRADSAENKLYSIALAICASEEYTH
modifications: strain 168
notes: phosphate butyryltransferase (EC 2.3.1.19) from Bacillus subtilis (strain 168), Uniprot P54530
- generation of 3-hydroxyisovaleryl phosphate [4]: generation of 3-hydroxyisovaleryl phosphate in the enzyme catalyzed assay was proved by MS technique
- production of 3-methylcrotonic acid and ATP [5]: significant production of 3-methylcrotonic acid without a simultaneous generation of ATP
- production of 3-hydroxyisovaleric acid and ATP [6]: significant production of 3-hydroxyisovaleric acid, without simultaneous generation of ATP
